Laboratory results: IntAct's records for PubMed 7538908

B1: Tumor necrosis factor receptor superfamily member 6 (Homo sapiens), P25445 (parent)
chain: MLGIWTLLPLVLTSVARLSSKSVNAQVTDINSKGLELRKTVTTVETQNLEGLHHDGQFCHKPCPPGERKARDCTVNGDEPDCVPCQEGKEYTDKAHFSSKCRRCRLCDEGHGLEVEINCTRTQNTKCRCKPNFFCNSTVCEHCDPCTKCEHGIIKECTLTSNTKCKEEGSRSNLGWLCLLLLPIPLIVWVKRKEVQKTCRKHRKENQGSHESPTLNPETVAINLSDVDLSKYITTIAGVMTLSQVKGFVRKNGVNEAKIDEIKNDNVQDTAEQKVQLLRNWHQLHGKKEAYDTLIKDLKKANLCTLAEKIQTIILKDITSDSENSNFRNEIQSLV

Variants of: B1
Conditions: with ripk1_human RIPK1, Q13546
Sequence of ripk1_human RIPK1, Q13546 (Q13546 whole entry): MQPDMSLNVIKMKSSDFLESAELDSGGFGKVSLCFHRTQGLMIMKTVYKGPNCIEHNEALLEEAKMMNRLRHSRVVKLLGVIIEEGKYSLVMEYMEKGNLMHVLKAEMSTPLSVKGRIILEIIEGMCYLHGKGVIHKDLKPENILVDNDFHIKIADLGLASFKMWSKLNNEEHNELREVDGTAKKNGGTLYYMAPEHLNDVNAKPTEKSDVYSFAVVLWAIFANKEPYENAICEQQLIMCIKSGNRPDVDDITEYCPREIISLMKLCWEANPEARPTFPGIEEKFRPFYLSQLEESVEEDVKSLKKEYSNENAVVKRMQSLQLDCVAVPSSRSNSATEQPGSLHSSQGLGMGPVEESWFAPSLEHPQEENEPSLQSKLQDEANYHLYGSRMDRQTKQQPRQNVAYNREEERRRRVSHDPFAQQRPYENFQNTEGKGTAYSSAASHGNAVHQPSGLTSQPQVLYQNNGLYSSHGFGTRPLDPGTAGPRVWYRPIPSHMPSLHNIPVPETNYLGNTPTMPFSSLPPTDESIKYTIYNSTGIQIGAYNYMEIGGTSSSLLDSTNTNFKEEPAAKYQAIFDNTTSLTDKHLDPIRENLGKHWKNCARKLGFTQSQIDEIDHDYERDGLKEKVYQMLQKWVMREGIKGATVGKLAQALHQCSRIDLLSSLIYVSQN

| effect of a mutation on the interaction | Variant |
| --- | --- |
| decreasing interaction | MLGIWTLLPLVLTSVARLSSKSVNAQVTDINSKGLELRKTVTTVETQNLEGLHHDGQFCHKPCPPGERKARDCTVNGDEPDCVPCQEGKEYTDKAHFSSKCRRCRLCDEGHGLEVEINCTRTQNTKCRCKPNFFCNSTVCEHCDPCTKCEHGIIKECTLTSNTKCKEEGSRSNLGWLCLLLLPIPLIVWVKRKEVQKTCRKHRKENQGSHESPTLNPETVAINLSDVDLSKYITTIAGVMTLSQVKGFVRKNGNNEAKIDEIKNDNVQDTAEQKVQLLRNWHQLHGKKEAYDTLIKDLKKANLCTLAEKIQTIILKDITSDSENSNFRNEIQSLV [V254N] |
